Test results reported in doi:10.1101/2020.01.30.926501 (bioRxiv, 2020).

Molecular target: the molecule itself
Assay: single-molecule GFP fluorescence intensity

Row | Protein | stoichiometry N
1 | Kif14(768)-eGFP (domain or fragment, human, UniProt Q15058 1-768, looked up) MSLHSTHNRNNSGDILDIPSSQNSSSLNALTHSSRLKLHLKSDMSECENDDPLLRSAGKVRDINRTYVISASRKTADMPLTPNPVGRLALQRRTTRNKESSLLVSELEDTTEKTAETRLTLQRRAKTDSAEKWKTAEIDSVKMTLNVGGETENNGVSKESRTNVRIVNNAKNSFVASSVPLDEDPQVIEMMADKKYKETFSAPSRANENVALKYSSNRPPIASLSQTEVVRSGHLTTKPTQSKLDIKVLGTGNLYHRSIGKEIAKTSNKFGSLEKRTPTKCTTEHKLTTKCSLPQLKSPAPSILKNRMSNLQVKQRPKSSFLANKQERSAENTILPEEETVVQNTSAGKDPLKVENSQVTVAVRVRPFTKREKIEKASQVVFMSGKEITVEHPDTKQVYNFIYDVSFWSFDECHPHYASQTTVYEKLAAPLLERAFEGFNTCLFAYGQTGSGKSYTMMGFSEEPGIIPRFCEDLFSQVARKQTQEVSYHIEMSFFEVYNEKIHDLLVCKDENGQRKQPLRVREHPVYGPYVEALSMNIVSSYADIQSWLELGNKQRATAATGMNDKSSRSHSVFTLVMTQTKTEFVEGEEHDHRITSRINLIDLAGSERCSTAHTNGDRLKEGVSINKSLLTLGKVISALSEQANQRSVFIPYRESVLTWLLKESLGGNSKTAMIATISPAASNIEETLSTLRYANQARLIVNIAKVNEDMNAKLIRELKAEIAKLKAAQRNSRNIDPERYRLCRQEITSLRMKLHQQERDMAEMQRV | 2
2 | Kif5b-GFP (domain or fragment, human, UniProt P33176 1-905, looked up) MADLAECNIKVMCRFRPLNESEVNRGDKYIAKFQGEDTVVIASKPYAFDRVFQSSTSQEQVYNDCAKKIVKDVLEGYNGTIFAYGQTSSGKTHTMEGKLHDPEGMGIIPRIVQDIFNYIYSMDENLEFHIKVSYFEIYLDKIRDLLDVSKTNLSVHEDKNRVPYVKGCTERFVCSPDEVMDTIDEGKSNRHVAVTNMNEHSSRSHSIFLINVKQENTQTEQKLSGKLYLVDLAGSEKVSKTGAEGAVLDEAKNINKSLSALGNVISALAEGSTYVPYRDSKMTRILQDSLGGNCRTTIVICCSPSSYNESETKSTLLFGQRAKTIKNTVCVNVELTAEQWKKKYEKEKEKNKILRNTIQWLENELNRWRNGETVPIDEQFDKEKANLEAFTVDKDITLTNDKPATAIGVIGNFTDAERRKCEEEIAKLYKQLDDKDEEINQQSQLVEKLKTQMLDQEELLASTRRDQDNMQAELNRLQAENDASKEEVKEVLQALEELAVNYDQKSQEVEDKTKEYELLSDELNQKSATLASIDAELQKLKEMTNHQKKRAAEMMASLLKDLAEIGIAVGNNDVKQPEGTGMIDEEFTVARLYISKMKSEVKTMVKRCKQLESTQTESNKKMEENEKELAACQLRISQHEAKIKSLTEYLQNVEQKKRQLEESVDALSEELVQLRAQEKVHEMEKEHLNKVQTANEVKQAVEQQIQSHRETHQKQISSLRDEVEAKAKLITDLQDQNQKMMLEQERLRVEHEKLKATDQEKSRKLHELTVMQDRREQARQDLKGLEETVAKELQTLHNLRKLFVQDLATRVKKSAEIDSDDTGGSAAQKQKISFLENNLEQLTKVHKQLVRDNADLRCELPKLEKRLRATAERVKALESALKEAKENASRDRKRYQQEVDRIKEA | 2
